{"source": "patent US6239106A", "about": "“Family of protease inhibitors, and other biologic active substances” (Clodica, S.A., priority 1994, dated 2001)", "key": {"[1]": {"molecular_target": "T1, elastase (Boehringer, 1027891) (Sus scrofa, UniProt P00772)", "T1 construct": "purchased Boehringer 1027891", "T1 sequence (P00772 27-266)": "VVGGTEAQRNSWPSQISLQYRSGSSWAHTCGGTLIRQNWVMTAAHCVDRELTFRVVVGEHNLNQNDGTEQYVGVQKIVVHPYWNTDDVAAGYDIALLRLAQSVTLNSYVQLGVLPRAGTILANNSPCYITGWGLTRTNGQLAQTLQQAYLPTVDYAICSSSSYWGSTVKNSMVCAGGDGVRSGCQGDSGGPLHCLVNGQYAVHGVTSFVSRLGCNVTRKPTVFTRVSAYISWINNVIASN", "experiment": "Elastase inhibition assay (chromogenic substrate SAAAP, 405 nm)", "assay_type": "biochemical", "conditions": "for inhibition of elastase activity: SAAAP substrate, 25° C., 30 minutes; for specific (elastase) activity: IU = quantity reducing hydrolysis of SAAAP with 1 μmol/min at pH 8.3 and 25° C.", "experimental": "2. Prior lyophilized base material underwent solubility tests after resuspension of the base material in 1) 0.1M Acetic Acid, 2) 50% Acetic Acid and 3) 0.1M Ammoniumbicarbonate and after centrifugation of the various suspensions, supernatants and pellets (after resuspension). Thereafter these were tested on the presence of protein by analytical sequence analysis (Edman degradation with automated sequenator Applied Biosystems, Model 477A) (Edman, 1956; Ilse & Edman, 1963), by applying protocolls, reagentia, chemicals and materials from Applied Biosystems (Warrington, UK and Foster City, Calif., USA) (Hewick, et al, 1981).It was investigated if biologic activity included anti-elastase as the described \"auto-antibiotic effect\" of A. hydrophila. Therefore, tests on inhibition of elastase activity were executed with dried samples of 20 μl of supernatant and resuspension of pellet of the base material on elastase (Boehringer) and SAAAP (Fluka) as chromogenic substrate, and 0.1 M Tris/HCl pH 8.2 as assay buffer. Based on the results obtained with the different solutions, and the inhibition of elastase, it was decided to use 0.1 M Hac as solution for the lyophilized base material and thereafter as eluens for gel filtration.\nThe principle of the assay resides in inhibition of elastase (Boehringer, 1027891) activity on the chromogenic substrate SAAAP (Fluka, nr. 85975) as measured at 405 nm spectophotometrically by monitoring release of the p-nitro-aniline group during substrate digestion.\nAssay buffer: 0.1M Tris/HCl pH 8.2, 1M NaCl.\nElastase: 40 μg/ml in H2 O.\nSubstrate: 1.0 mM SAAAP in H2 O.\nGlacial Acetic Acid 50%: diluted in H2 O.\nReaction in tubes (Eppendorf), containing 100 μl assay buffer, 50 μl sample elastase inhibitor, 50 μl elastase solution was started by addition of SAAAP (25 μl, 1 mM) and incubated at 25° C. for 30 minutes. Thereafter the reaction was stopped by addition of 25 μl 50% Glacial Acetic Acid. The Absorbance of released p-nitroaniline was read at 405 nm.\nInternational units (IU) are defined as that quantity which reduces the enzymatic hydrolysis of SAAAP with 1 μmol/min at pH 8.3 and 25° C."}, "[2]": {"system": "Trypsin", "experiment": "Trypsin inhibition assay (BAPNA)", "assay_type": "biochemical", "conditions": "for trypsin inhibition: BAPNA, 37° C.", "experimental": "An assay was developed for determination of the activity of this Trypsin inhibitor. In analogy with the elastase inhibition assay the preparation of the solution was as follows:\nTrypsin, Type II-S soybean trypsin inhibitor (Sigma T 9128) and BAPNA (Sigma B 3279). This was further optimized to: trypsin solution: 120 μg/ml; BAPNA solution 10 mM; Trypsin inhibitor 100 μg/ml and incubation at 37° C. All other details were equal with the elastase inhibition assay.\n(§1) Elastase inhibitory activity of Fahsin was measured by inhibition of the release of the p-nitroanilide group from the synthetic substrate N-succinyl-(Ala) 3-p-nitroanilide (SAAAP) (Calbiochem), catalyzed by pancreatic elastase and human neutrophil elastase respectively. Chymotrypsin inhibition activity of Fahsin was measured by the use of the synthetic substrate S-2586 (Kabi Vitrum). […] of Fahsin was measured by the use of the synthetic substrate S-2238 (Kabi Vitrum). pepsin activity of Fahsin was measured by the use of a haemoglobin substrate. Trypsin inhibition activity was determined using the BAPNA assay. Plasmin inhibition activity of Fahsin was related with the Trypsin inhibition activity and measured by the use of the chromogenic substrate D-Val-Leusyl-Lys-pNA (Othodiagnostics)."}, "[3]": {"experimental": "Stability of the molecule was tested\na) by boiling it in water at 100° C. for 30 minutes.\nb) by immersion in 50% acetic acid at room temperature during one night, and\nc) by immersion in 0.1M HCl in the same conditions.\nThe samples were consequently assayed with the elastase inhibition assay, as were blancs without inhibitor."}, "[4]": {"molecular_target": "elastase (Boehringer, 1027891)"}, "[5]": {"molecular_target": "elastase (Boehringer, 1027891)", "remark": "listed apart in the source"}, "[6]": {"molecular_target": "trypsin"}, "[7]": {"molecular_target": "plasmin (Homo sapiens, UniProt P00747)", "sequence (P00747 581-810 limits assumed, species assumed)": "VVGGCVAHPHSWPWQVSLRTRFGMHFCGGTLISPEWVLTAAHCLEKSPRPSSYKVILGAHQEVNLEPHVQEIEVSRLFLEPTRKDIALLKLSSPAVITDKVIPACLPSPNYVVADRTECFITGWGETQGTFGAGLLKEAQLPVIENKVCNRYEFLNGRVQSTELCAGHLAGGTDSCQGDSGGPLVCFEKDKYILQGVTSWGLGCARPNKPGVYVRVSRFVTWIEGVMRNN", "sequence (P00747 97-580 partner limits assumed, species assumed)": "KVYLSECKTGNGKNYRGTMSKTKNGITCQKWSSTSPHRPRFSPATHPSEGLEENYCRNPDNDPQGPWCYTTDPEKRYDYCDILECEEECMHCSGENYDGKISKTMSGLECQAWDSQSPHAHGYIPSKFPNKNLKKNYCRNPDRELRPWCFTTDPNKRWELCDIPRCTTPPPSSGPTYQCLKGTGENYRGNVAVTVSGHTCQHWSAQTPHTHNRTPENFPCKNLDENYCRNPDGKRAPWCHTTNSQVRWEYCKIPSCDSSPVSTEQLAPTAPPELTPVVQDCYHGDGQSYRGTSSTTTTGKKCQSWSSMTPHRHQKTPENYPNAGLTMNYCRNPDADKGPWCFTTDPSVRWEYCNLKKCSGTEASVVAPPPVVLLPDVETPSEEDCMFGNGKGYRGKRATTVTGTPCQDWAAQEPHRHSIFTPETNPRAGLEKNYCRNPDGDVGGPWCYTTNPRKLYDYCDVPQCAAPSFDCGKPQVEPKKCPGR", "experiment": "Plasmin inhibition (chromogenic substrate D-Val-Leusyl-Lys-pNA)", "assay_type": "biochemical", "experimental": "as §1"}}, "note": "Read-outs that look alike come from different tables or passages of the source. Non-standard residues stand in square brackets, D forms with d. Residues, ends and D or L forms follow the SMILES beside them. No end group written: not given here. Abu = CC[C@H](N)C(=O)O"}
{"molecule": "CC[C@H](NC(=O)[C@H](CCCNC(=N)N)NC(=O)[C@@H](NC(=O)[C@@H]1CCCN1C(=O)[C@@H](NC(C)=O)[C@@H](C)O)[C@@H](C)CC)C(=O)N[C@@H](CC(C)C)C(=O)N[C@H](C(=O)N[C@@H](Cc1ccccc1)C(=O)N[C@@H](CC)C(=O)N1CCC[C@H]1C(=O)N[C@@H](CC(N)=O)C(=O)NCC(=O)N[C@@H](Cc1ccccc1)C(=O)N[C@@H](C)C(=O)N[C@H](C(=O)N[C@@H](CC(=O)O)C(N)=O)C(C)C)[C@@H](C)CC", "note": "[Synthetic peptide I, N-Acetyl-TPIRAbuLIFAbuPNGFAVD-amide] (Ac-TPIR[Abu]LIF[Abu]PNGFAVD-NH2)", "values": [{"measurement": "inhibition of elastase activity", "setting": "[1]", "result": "dose-dependent inhibition of elastase activity"}, {"measurement": "specific effectivity (elastase inhibition), factor less than the native molecule", "setting": "[1]; relative to native molecule", "result": "~5,000"}]}
{"molecule": "CC[C@H](NC(=O)[C@H](CCCNC(=N)N)NC(=O)[C@@H](NC(=O)[C@@H]1CCCN1C(=O)[C@@H](NC(C)=O)[C@@H](C)O)[C@@H](C)CC)C(=O)N[C@@H](CCCNC(=N)N)C(=O)N[C@H](C(=O)N[C@@H](Cc1ccc(O)cc1)C(=O)N[C@@H](CC)C(=O)N1CCC[C@H]1C(=O)N[C@@H](CCCCN)C(=O)NCC(=O)N[C@@H](Cc1ccccc1)C(=O)N[C@@H](CCC(=O)O)C(=O)N[C@H](C(=O)N[C@@H](CC(=O)O)C(N)=O)C(C)C)[C@@H](C)CC", "note": "[Synthetic peptide II, N-Acetyl-TPIRAbuRIYAbuPKGFEVD-amide] (Ac-TPIR[Abu]RIY[Abu]PKGFEVD-NH2)", "values": [{"measurement": "trypsin inhibition", "setting": "[2]", "result": "dose-dependent inhibition of trypsin activity"}, {"measurement": "specific effectivity (trypsin inhibition), factor less than the native molecule", "setting": "[2]; relative to native molecule", "result": "~1,500"}]}
{"molecule": "DDNCGGKVCSKGQLCHDGHCECTPIRCLIFCPNGFAVDENGCELPCSCKHQ (cysteine pairing not given here) [peak 8]", "values": [{"measurement": "specific (elastase) activity", "setting": "[1]", "result": 1.7, "unit": "IU/mg"}, {"measurement": "inhibition of elastase activity", "setting": "[1]", "result": "showed inhibition of elastase"}, {"measurement": "stability: elastase inhibiting activity after treatment", "setting": "[3]; 0.1M HCl at room temperature during one night", "result": "no significant decrease of inhibiting activity"}, {"measurement": "stability: elastase inhibiting activity after treatment", "setting": "[3]; 50% acetic acid at room temperature during one night", "result": "no significant decrease of inhibiting activity"}, {"measurement": "stability: elastase inhibiting activity after treatment", "setting": "[3]; boiling in water at 100° C. for 30 minutes", "result": "no significant decrease of inhibiting activity"}]}
{"molecule": "peak 7: single molecule isoform from Limnatis nilotica, 5494.4 D, partial sequence in b92, elastase inhibitor (DDDCGGQVCSKGQLCHDGHCECTPIRCLIYCPNFVDE)", "values": [{"measurement": "specific (elastase) activity", "setting": "[1]", "result": 1.2, "unit": "IU/mg"}, {"measurement": "inhibition of elastase activity", "setting": "[1]", "result": "showed inhibition of elastase"}]}
{"molecule": "peak 9: isoform found to be a mixture of two molecules, 5385.5 and 5454.1 D, partial sequence in b93 (protein) chain 1: DDDCGGKVCSKGQLCVDGHCECTPIRCLIYCPNGFAVENGC chain 2: DGNCGGQVCSKGQLCVDGQCKCTPIRCLIYCPNGFAVENGC", "values": [{"measurement": "specific (elastase) activity", "setting": "[1]", "result": 0.95, "unit": "IU/mg"}, {"measurement": "inhibition of elastase activity", "setting": "[1]", "result": "showed inhibition of elastase"}]}
{"molecule": "Ac-TPIR[Abu]LIF[Abu]PNGFAVD-NH2 (SMILES CC[C@H](NC(=O)[C@H](CCCNC(=N)N)NC(=O)[C@@H](NC(=O)[C@@H]1CCCN1C(=O)[C@@H](NC(C)=O)[C@@H](C)O)[C@@H](C)CC)C(=O)N[C@@H](CC(C)C)C(=O)N[C@H](C(=O)N[C@@H](Cc1ccccc1)C(=O)N[C@@H](CC)C(=O)N1CCC[C@H]1C(=O)N[C@@H](CC(N)=O)C(=O)NCC(=O)N[C@@H](Cc1ccccc1)C(=O)N[C@@H](C)C(=O)N[C@H](C(=O)N[C@@H](CC(=O)O)C(N)=O)C(C)C)[C@@H](C)CC)", "note": "[Synthetic linear peptide N-Acetyl-TPIRAbuLIFAbuPNGFAVD-amide (I)]", "values": [{"measurement": "specific effectivity against the native molecule", "setting": "[4]", "result": 5000, "unit": "factor less"}]}
{"molecule": "DDDCGGQVCSKGQLCHDGHCECTPIRCLIYCPNFVDE", "note": "[FAHSIN E 1]", "values": [{"measurement": "specific (elastase) activity, inhibition of SAAAP hydrolysis", "setting": "[5]", "result": 1.2, "unit": "IU/mg"}]}
{"molecule": "Ac-TPIR[Abu]RIY[Abu]PKGFEVD-NH2 (SMILES CC[C@H](NC(=O)[C@H](CCCNC(=N)N)NC(=O)[C@@H](NC(=O)[C@@H]1CCCN1C(=O)[C@@H](NC(C)=O)[C@@H](C)O)[C@@H](C)CC)C(=O)N[C@@H](CCCNC(=N)N)C(=O)N[C@H](C(=O)N[C@@H](Cc1ccc(O)cc1)C(=O)N[C@@H](CC)C(=O)N1CCC[C@H]1C(=O)N[C@@H](CCCCN)C(=O)NCC(=O)N[C@@H](Cc1ccccc1)C(=O)N[C@@H](CCC(=O)O)C(=O)N[C@H](C(=O)N[C@@H](CC(=O)O)C(N)=O)C(C)C)[C@@H](C)CC)", "note": "[Synthetic linear peptide N-Acetyl-TPIRAbuRIYAbuPKGFEVD-amide (II)]", "values": [{"measurement": "specific effectivity against the native molecule", "setting": "[6]", "result": 1500, "unit": "factor less"}]}
{"molecule": "peak 5: 1:1 mixture of 2 peptides, 5377.2 and 5435.5 Dalton, SEQ ID NO:5 or 6, trypsin inhibitor (protein) chain 1: DDDCGGQVCSKGQLCVDGQCKCTPIRCRIYCPKGFEVDENGCELPCTCKQ chain 2: DGNCGGQVCSKGQLCVDGQCKCTPIRCRIYCPKGFEVDENGCELPCTCKQ", "values": [{"measurement": "specific (elastase) activity", "setting": "[1]", "result": "less than 0,06 IU/mg"}, {"measurement": "inhibition of elastase activity", "setting": "[1]", "result": "did not show anti-elastase activity"}, {"measurement": "inhibition of plasmin", "setting": "[7]", "result": "strongly active"}, {"measurement": "trypsin inhibition", "setting": "[2]; listed as Fahsin T 1-2", "result": "strongly active"}, {"measurement": "trypsin inhibition", "setting": "[2]; listed as Fraction 5", "result": "strong trypsin inhibition"}, {"measurement": "trypsin inhibitory activity compared with the fractions corresponding to peaks 7, 8 and/or 9", "setting": "[2]; ratio to peaks 7, 8 and/or 9", "result": "at least twenty times higher"}]}
